Data from patent US7750123B2.

Substrate: S protein of GD03T on pseudotyped HIV virus (SARS-CoV (GD03T0013 isolate))

B1: 80R IgG1 (antibody, V domains shown)
VH: EVQLVQSGGGVVQPGKSLRLSCAASGFAFSSYAMHWVRQAPGKGLEWVAVISYDGSNKYYADSVKGRFTISRDNSKNTLYLQMNSLRAEDTAVYYCARDRSYYLDYWGQGTLVTVSS
VL: ETTLTQSPATLSLSPGERATLSCRASQSVRSNLAWYQQKPGQAPRPLIYDASTRATGIPDRFSGSGSGTDFTLTISRLEPEDFAVYYCQQRSNWPPTFGQGTKVEVK
inhibition of pseudoviral infection of ACE2-expressing 293T cells (luciferase): > 50 µg/mL
